# From the RNAGym collection of RNA variant scans (doi:10.1093/nar/gkz1192)
# B1: CPEB3 Ribozyme (parent)
# chain: UAACAGGGGGCCACAGCAGAAGCGUUCACGUCGCAGCCCCUGUCAGAUUCUGGUGAAUCUGCGAAUUCUGCUGUAUAUCUC
# Variants of: B1
# Test: self-cleavage, relative activity (ratio to wild type); higher = more cleavage; in vitro, sequencing
# Outline: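 Barcoded CPEB3 ribozyme mutants, produced by rounds of error-prone PCR, self-cleaved while being transcribed with T7 RNA polymerase for 5 hours at 37°C and during a subsequent 15 min DNase I step before EDTA was added. Sequencing of template-switched cDNA on Illumina gave cleaved and total reads, and DNA sequencing assigned barcodes to variants. Each variant's relative activity is its cleaved/total read fraction divided by the unmutated ribozyme's fraction, averaged across three batches. A variant needed a minimum of 5 reads.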
row,Variant,self-cleavage
1,A2G G46A,0.28
2,A2G G46U,0.3
3,A2G C14U,0.49
4,A2U G33U,0.32
5,A2G G6A,0.59
6,A2G G6U,0.68
7,A2G U54G,0.51
8,A2G U54A,0.66
9,A2G U54C,0.58
10,A3C C81G,1.19
11,A3C U72A,1.09
12,A2G G70A,0.16
13,A2G C68A,0.11
14,A2U A21G,0.56
15,A2U A21U,0.29
16,A2G G24A,0.3
17,A3C C37U,0.6
18,A2U U41A,0.25
19,A2U U41C,1.07
20,A2G G33C,0.32
21,A2G G33U,0.3

row,Variant,self-cleavage
1,A2G G19A,0.58
2,A2G G19U,0.89
3,A2G G42U,0.55
4,A2G G42A,0.05
5,A2U U26C,0.55
6,A2U U26A,0.87
7,A2U U26G,0.5
8,A2U G52C,1.04
9,A2U G42A,0.43
10,A2G C27A,0.36
11,A2G C27U,0.4
12,A2U G36A,0.29
13,A2G U43C,0.34
14,A2G U43A,1.02
15,A2C U67C,0.36
16,A3C C44G,0.84
17,A2U U80G,1.06
18,A2U U80C,1.09
19,A2U U80A,1.14
20,A2U U58C,0.42
21,A2U U58A,0.35

row,Variant,self-cleavage
1,A3C A20G,1.05
2,A2G U60C,0.25
3,A2G U60A,0.22
4,A2U A47G,1.11
5,A3C C39U,1.13
6,A2C U26C,0.55
7,A3C A57G,1.19
8,A2U A56C,0.73
9,A2U A56U,0.4
10,A2U A56G,0.88
11,A2G C29A,0.13
12,A2G C29U,0.24
13,A3C A28G,1.09
14,A2C U49C,0.42
15,A2G A57U,0.28
16,A2G A57G,0.5
17,A2G A35U,0.37
18,A2G A35G,1.21
19,A2U C12U,1.18
20,A2U C12G,0.19
21,A3C A21G,0.63

row,Variant,self-cleavage
1,A2G G53A,0.66
2,A2G G53U,0.72
3,A3C U25G,0.55
4,A3C U25A,0.4
5,A3C U25C,0.44
6,A2U U43A,1.05
7,A2U U43C,0.47
8,A3C U43A,1.24
9,A3C U43C,0.81
10,A2U C44A,0.24
11,A2G U31C,0.41
12,A2G U31A,0.43
13,A2G C81U,0.81
14,A2C U31C,0.63
15,A3C A15U,0.77
16,A3C A15G,1.03
17,A2U U25C,0.37
18,A2U U25A,0.09
19,A3C A35U,0.81
20,A3C A35G,1.21
21,A2C G61A,0.48
